According to patent US12698507B2, “Methods and compositions for conferring and/or enhancing herbicide tolerance using protoporphyrinogen IX oxidase of various cyanobacteria or variant thereof” (FarmHannong Co., Ltd., priority 2019, dated 2026):
Numbering of substitutions follows the chain as printed. In names and notes the source's numbering stands.

B1: CyPPO19 V305M + I408W + F360V: variant of CyPPO19 PPO protein (SEQ ID NO: 1) (protein)
chain: MSEVDVAIVGGGLSGLSLAWRLQQSAPQYSVVLLEASDRLGGNITTQTAEGFVWELGPNSFAPTPALLQLIAEVGLQSELIRGDRHLPRYIYWRGQLYPLQPTRPLALATSNLLSPWGKVRAALGALGFVPPYLGSGDESVNSFFRRHLGQEVAERLVAPFVSGVYAGDPQQLSAAAAFRRIAQLEKLGGGLIAGALHLRRQQAPKPKPPTSVQMRPGELGSFKEGLAALPRAIAQQLKAPIHLQTPVQEITPDPKGGYLLRSGEQTWRARSVVLATPAYQTAELVAPFQPAIARVLATIPYPTMACVVLAYPAGLGRSVRPGFGVLIPRSQGIRTLGTIWSSCLFPQRTPAGWQVFTSVIGGATDPDLASLSEEAIVQQVQQDLNRLLDLPAAKARLLGMKVWRRAWPQYMVGYPEQWQQVTHALSQTPGLFLCSNYAEGVALGDRVEHGNRTAAAVAAYLSGGQP
modifications: Synthetic_PPO of Thermosynechococcus elongatus PKUAC-SCTE542 (comprising GenBank No. CP032152.1)
B2: CyPPO19 L327T + I408W + F360V: variant of CyPPO19 PPO protein (SEQ ID NO: 1) (protein)
chain: B1 chain with M305V, L327T
modifications: Synthetic_PPO of Thermosynechococcus elongatus PKUAC-SCTE542 (comprising GenBank No. CP032152.1)
B3: CyPPO19 V165C + F360L: variant of CyPPO19 PPO protein (SEQ ID NO: 1) (protein)
chain: B1 chain with V165C, M305V, V360L, W408I
modifications: Synthetic_PPO of Thermosynechococcus elongatus PKUAC-SCTE542 (comprising GenBank No. CP032152.1)
B4: CyPPO19 V305L + I408R + F360L: variant of CyPPO19 PPO protein (SEQ ID NO: 1) (protein)
chain: B1 chain with M305L, V360L, W408R
modifications: Synthetic_PPO of Thermosynechococcus elongatus PKUAC-SCTE542 (comprising GenBank No. CP032152.1)
B5: CyPPO19 R89A + V165C + A167C + F360I: variant of CyPPO19 PPO protein (SEQ ID NO: 1) (protein)
chain: B1 chain with R89A, V165C, A167C, M305V, V360I, W408I
modifications: Synthetic_PPO of Thermosynechococcus elongatus PKUAC-SCTE542 (comprising GenBank No. CP032152.1)
B6: CyPPO19 R89A + V165S + V305M + F360M: variant of CyPPO19 PPO protein (SEQ ID NO: 1) (protein)
chain: B1 chain with R89A, V165S, V360M, W408I
modifications: Synthetic_PPO of Thermosynechococcus elongatus PKUAC-SCTE542 (comprising GenBank No. CP032152.1)
B7: CyPPO19 L327T + I408R + F360M: variant of CyPPO19 PPO protein (SEQ ID NO: 1) (protein)
chain: B1 chain with M305V, L327T, V360M, W408R
modifications: Synthetic_PPO of Thermosynechococcus elongatus PKUAC-SCTE542 (comprising GenBank No. CP032152.1)

tested on: PPO-deficient BT3 E. coli (ΔPPO); assay: PPO-inhibiting herbicide tolerance test of PPO variants in E. coli (growth on herbicide-containing LB agar); assay type: cell-based; settings: CyPPO19 variants in BT3 (ΔPPO) E. coli; LB agar with 0 to 2,000 μM herbicide, 37° C., dark, 16-20 hours
Procedure, shortened: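 PPO-deficient BT3 E. coli expressing each variant from pET303 were diluted to OD600=0.5, then 10-fold serially, and spotted on LB-ampicillin agar with 0 to 2,000 μM herbicide. After 16-20 h at 37° C. in the dark, growth relative to wild type was scored from '−' (equivalent) to '+' per 10-fold resistance, max '+++++'.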

Molecule	tolerance level relative to wild type, Carfentrazone	tolerance level relative to wild type, Flumioxazin	tolerance level relative to wild type, Fomesafen	tolerance level relative to wild type, Oxyfluorfen	tolerance level relative to wild type, Saflufenacil	tolerance level relative to wild type, Sulfentrazone	tolerance level relative to wild type, Tiafenacil
B1	+ (‘+’ per each 10-fold resistance)	+++++ (until ‘+++++’ as maximal resistance)	+++ (‘+’ per each 10-fold resistance)	+++ (‘+’ per each 10-fold resistance)	+++++ (until ‘+++++’ as maximal resistance)	++++ (‘+’ per each 10-fold resistance)	+++++ (until ‘+++++’ as maximal resistance)
B2	++ (‘+’ per each 10-fold resistance)	+++++ (until ‘+++++’ as maximal resistance)	+++++ (until ‘+++++’ as maximal resistance)	+++++ (until ‘+++++’ as maximal resistance)	+++++ (until ‘+++++’ as maximal resistance)	++++ (‘+’ per each 10-fold resistance)	+++++ (until ‘+++++’ as maximal resistance)
B3	+ (‘+’ per each 10-fold resistance)	++++ (‘+’ per each 10-fold resistance)	+++ (‘+’ per each 10-fold resistance)	++ (‘+’ per each 10-fold resistance)	++++ (‘+’ per each 10-fold resistance)	++++ (‘+’ per each 10-fold resistance)	++++ (‘+’ per each 10-fold resistance)
B4	+ (‘+’ per each 10-fold resistance)	++++ (‘+’ per each 10-fold resistance)	+ (‘+’ per each 10-fold resistance)	++ (‘+’ per each 10-fold resistance)	+++++ (until ‘+++++’ as maximal resistance)	++ (‘+’ per each 10-fold resistance)	+++++ (until ‘+++++’ as maximal resistance)
B5	+ (‘+’ per each 10-fold resistance)	+++ (‘+’ per each 10-fold resistance)	++ (‘+’ per each 10-fold resistance)	+ (‘+’ per each 10-fold resistance)	+++ (‘+’ per each 10-fold resistance)	++ (‘+’ per each 10-fold resistance)	+++ (‘+’ per each 10-fold resistance)
B6	+ (‘+’ per each 10-fold resistance)	+++++ (until ‘+++++’ as maximal resistance)	+++ (‘+’ per each 10-fold resistance)	++ (‘+’ per each 10-fold resistance)	+++++ (until ‘+++++’ as maximal resistance)	+++ (‘+’ per each 10-fold resistance)	+++++ (until ‘+++++’ as maximal resistance)
B7	+ (‘+’ per each 10-fold resistance)	+++++ (until ‘+++++’ as maximal resistance)	++ (‘+’ per each 10-fold resistance)	+++ (‘+’ per each 10-fold resistance)	+++ (‘+’ per each 10-fold resistance)	+ (‘+’ per each 10-fold resistance)	+++++ (until ‘+++++’ as maximal resistance)
